From patent US20140294844A1

Target: huPrP23-231 (human) (UniProt P04156)

ICSM-35 (antibody)
IC50: 10.4 nM
Kd: 10 nM
Ki: 20 nM
